# In the DeepSol protein solubility set:
# Assay: soluble on expression in E. coli; label from the status in PepcDB or PDB records
row,Sequence,soluble on expression in E. coli
1,MHHHHHHSSGVDLGTENLYFQSMGNKYIQQTKPLTLERTINLYPLTNYTFGTKEPLYEKDSSVAARFQRMREEFDKIGMRRTVEGVLIVHEHRLPHVLLLQLGTTFFKLPGGELNPGEDEVEGLKRLMTEILGRQDGVLQDWVIDDCIGNWWRPNFEPPQYPYIPAHITKPKEHKKLFLVQLQEKALFAVPKNYKLVAAPLFELYDNAPGYGPIISSLPQLLSRFNFIYN,soluble
2,MHHHHHHSSGVDLGTENLYFQSMWSVRPSDMAKKTFNPIRAIVDNMKVKPNPNKTMISLSIGDPTVFGNLPTDPEVTQAMKDALDSGKYNGYAPSIGFLSSREEIASYYHCPEAPLEAKDVILTSGCSQAIDLCLAVLANPGQNILVPRPGFSLYKTLAESMGIEVKLYNLLPEKSWEIDLKQLEYLIDEKTACLIVNNPSNPCGSVFSKRHLQKILAVAARQCVPILADEIYGDMVFSDCKYEPLATLSTDVPILSCGGLAKRWLVPGWRLGWILIHDRRDIFGNEIRDGLVKLSQRILGPCTIVQGALKSILCRTPGEFYHNTLSFLKSNADLCYGALAAIPGLRPVRPSGAMYLMVGIEMEHFPEFENDVEFTERLVAEQSVHCLPATCFEYPNFIRVVITVPEVMMLEACSRIQEFCEQHYHC,soluble
3,MHIDLRQLRHFIALHEHRSFVAAALAVNLSQSAFSRSIQALEHSAGCRLVDRAAKDLRPTKQGLIVLEHARRLVSGAHNLANEIALFNGLEAGELRFGAGPAPATWLVPRAVGRFNVRYPKARVSFQVEHWQALNRRLQAEEFEFFVADTRHFEADPQYRTSRLRPRRWHFCCREGHPLAARESVSAEELLSFPLATNISPPNIRKVLVDLSGRPDFRPAIECENGHSLLGVVLASDAIGISSGLGDLAPPGQGGLRPLRVRELPDDLDELHTRYGIVSRAGYSLSPLAEAMIDELKRVDDAT,not soluble
4,MHILVVGVDYKSAPIEIREKVSFQPNELAEAMVQLKEEKSILENIIVSTCNRTEIYAVVDQLHTGRYYIKKFLADWFQLSKEELSPFLTFYESDAAVEHLFRVACGLDSMVIGETQILGQVRDSFKTAQQEKTIGTIFNELFKQAVTVGKRTHAETDIGSNAVSVSYAAVELAKKIFGNLSSKHILILGAGKMGELAAENLHGQGIGKVTVINRTYLKAKELADRFSGEARSLNQLESALAEADILISSTGASEFVVSKEMMENANKLRKGRPLFMVDIAVPRDLDPALNDLEGVFLYDIDDLEGIVEANMKERRETAEKVELLIEETIVEFKQWMNTLGVVPVISALREKALAIQSETMDSIERKLPHLSTREKKLLNKHTKSIINQMLRDPILKVKELAADADSEEKLALFMQIFDIEEAAGRQMMKTVESSQKVHSFKKAESKAGFSPLVSE,not soluble
5,MHKINKWSVIYNINSTVTRALRDLMQGILQKI,soluble
6,MHKIRVIESTLGYPQKNRMESESYEGVQTYMDMKDGSLIAVQPNKDDLMSQILSPDNLNRAYLQVVRNKGVGGVDRMDFKQLLPYLHEHKSELIESIRIGRYKPNSVRRVDIAKDNGKKRLIGIPTVVDRLIQQAIVQVLSPIYERQFSPSSFGFRPDVVRMLEHHHHHH,not soluble
7,MHKVVIVGRPNVGKSSLFNRLLKKRSAVVADVPGVTRDLKEGVVETDRGRFLLVDTGGLWSGDKWEKKIQEKVDRALEDAEVVLFAVDGRAELTQADYEVAEYLRRKGKPVILVATKVDDPKHELYLGPLYGLGFGDPIPTSSEHARGLEELLEAIWERLPVRQIETEPEVAGIRLAIVGRPNAGKSSLLNAILGEERVIVSEEPGTTRDAIDVEFFFGGQRFVLVDTAGIRKRPENLVEELAIRRSLRAMDEADVVLLVVDPFQVGDRELKLANEALDRGKPVLLVITKWDLVDKEDAPKMRRLLREKLAHLDHLPRVFTSALTRQNLDRIFREAVRLHELNQTRVPTAELNRWVAVWTSRVQMPNFKGKPLKILYATQPEVAPPTFVFFVNHPEFVTRAFENYLKNRIGEDLGLREVPFRLVFRGRREE,soluble
8,MHNKIVRIASSALTGGKLLEKLKPLTRWEVQWDPNKTKCLGITREVTFKDYETTWAFLTRVSMRSHLWGHHPLIHTSYTWVKLELHTHDIDPKDGAHSQLSDIDVRMAKRIDSYIDEMTT,not soluble
9,MHNNENVSGISAYLLGLIWGDGGLYKLKYKGNRSEYRVVITQKSENLIKQFIAPRMQFLIDELNVKSKIQIVKGDTRYELRVSSKKLYYYFANMLERIRLFNGNRFLAYLAGIVDGDGSIIAQIKPNQSYKFKHQLSLTFQVTQKTERRWFLDKLVDEIGVGYVRDRGSVSDYILSEIKPLHNFLTQLQPFLNFKQKQANLVLKIIEQLPSAKESPDKFLEVCTWVDQIAALNDSKTRKTTSETVRAVLDSLSEKKKSSP,soluble
10,MHPMNILLKLPLKIPLMIIEKAREILEKHPLCNHCLGRMFAKLGKGTNEERGKAIRLILSMELNREVKEPENCELCQGIFRRMNELLDLVRNAVEDYEFQTFQIGSRFPKDILEKEKKIWEEFGITTGEPINREFNRELGKLFAKVTGKIPNRERPDIVIIVEPFSSKVELQVNPIYVAGRYRKLVRGIPQTPAPGFEESIATIICRVFKKNFRGKCIFKGAGREDVDVRTLGRGRPFVVEIKKPRKRKVDLKLIEEEINSSGKVEVLELKFITPEESEKILTARHKKIYEALVYVKDGVSAEEVEKVVKSLKGSEIKQRTPRRVLNSRADIVRVRRVYNVSGEYIDEHHFKLKLVTDGGLYIKELISGDKGRTKPSVSEILGKEAWCEILDVLDVLDGDENVEGDS,soluble
11,MHPSLRYIQGYPQNIVEQVSSLVDNGKLIPWFEKRYPDRHQIKSEKALYEYAIAIKNRYMKKASPISKVVYDKKIHAVNNALGLHSVISRNHGGKLKSKNEIRIANVFKDAPEALLRMLVVHELAHTREKNHDKAFYQLCCYMEPEYHQLELDARLFMIYLDLKANSNEEQLEHHHHHH,soluble
12,MHQAPATSTDENPPIESDVPMHHVYPSHHHHQHYQLPHLQQHPHPYSYPLYTFPYPIAPAFHQAQNPPMTSSVASGANGEHHHQPQQFFAPQYQVIPAGAIPVSTINIDPSQICPVDQMGMWTLPPPTGPNGMRYGIPIPAPLVPQITSSIMEASKMTSSTHTNATILNAMTASTSSNDSSSESGVSGVKEAKDEKKKSKIQADEKLRHEERQSTSDYTDDDPIPFTSRRSITGSVSYNYAEQIAERRRVEQQQEDRERQEMLEVERQRRVLEDRRNSEEEIRKQAELDRVEKDRLRMEQAAAAMEKARKEAELAKRARIYKHVFRGAEEEGGTEQLEELEQKILGVDIETGRRLLKEVSEVEWHKKQDEAEIRKNAPPQSDRSAHNLSSLSSGNQSARGRSSSISSPCKPDTSFTRNSIGRRSVRTTSREKQQESPKSSDQAVQHPLAASTPVRRPPRQPQALPTQDEIHVAREVPLANKSTTPSPTRSEMLRSAAIYCPINRDPLSQREELRAINRSTSNTGAYHNNNNNNNSKFEGAGVSRYNEITQTALFGPIATRNSIRRGTMRGTGLPSPPSVRVSTQNHQNQQRTSSFDESSSGGEEGGSISPDLGHKNFESPLPSSTENVHPASNSPPMKQIEGFEFKTPTRARSALSSPMSNFMNGGDNDSPISRPASRLMQRLEQKGTIRRDDEIISQEIRRVAETNLSRSPSLASLRGSMSNLAFRASQLNLAGTSGELPPNLTKFASVNSPARQSLSSMKKTTDRQAAVLERLGRLRESLHAGKNYTPPRNGISSSSRITTPAQTPPISPRPVM,not soluble
13,MHRPEAEKWLRRFERAPDARARLVCLPHAGGSASFFFPLAKALAPAVEVLAVQYPGRQDRRHEPPVDSIGGLTNRLLEVLRPFGDRPLALFGHAMGAIIGYELALRMPEAGLPAPVHLFASGRRAPSRYRDDDVRGASDERLVAELRKLGGSDAAMLADPELLAMVLPAIRSDYRAVETYRHEPGRRVDCPVTVFTGDHDPRVSVGEARAWEEHTTGPADLRVLPGGHFFLVDQAAPMIATMTEKLAGPALTGSTGGNSLEHHHHHH,soluble
